These results are taken from US20110300138A1 (published 2011).

For assay [1], the target named is TSH receptor (full length human TSHR) coated on tubes (human) (UniProt P16473). Briefly: 125I-TSH bound to TSHR coated tubes, in assay buffer.
Assay [2] shares this target. Description: 125I-TSH bound to TSHR coated tubes, in HBD pool serum.
Assay [3] has as its target TSH receptor (TSHR), full length human, coated on tubes (human) (UniProt P16473). Briefly: inhibition of 125I-TSH binding to TSHR coated tubes; 0.003 µg/mL, diluted in HBD serum pool.
Assay [4] has as its target TSHR260-alkaline phosphatase (TSHR260-AP) (human) (UniProt P05187). Briefly: TSHR260-AP bridge ELISA, full length TSHR on wells; 10 µg/mL, diluted in HBD. For orientation: An ELISA detects its analyte on a solid surface through an enzyme-linked reagent.
Assay [5] shares this target. Briefly: TSHR260-AP bridge ELISA, full length TSHR on wells; 0.005 µg/mL, diluted in assay buffer.
Assay [6] has as its target human TSH receptor (full length), coated on tubes (human) (UniProt P16473). Description: inhibition of 125I-K1-70 Fab (competitor) binding to TSHR coated tubes; 0.003 µg/mL in HBD serum pool.
In assay [7] the target is TSHR260-alkaline phosphatase (TSHR260-AP) (human) (UniProt P05187). Description: TSHR260-AP bridge ELISA, full length TSHR on wells; 0.1 µg/mL, diluted in assay buffer.
The target of assay [8] is human thyroid stimulating hormone receptor (TSHR), full length (human) (UniProt P16473). Description: 125I-K1-18 Fab competition, TSHR coated tubes; 0.001 µg/mL in assay buffer.
For assay [9], the target named is TSHR260-alkaline phosphatase (TSHR260-AP) (human) (UniProt P05187). Description: TSHR260-AP bridge ELISA, full length TSHR on wells; 0.005 µg/mL, diluted in HBD.
For assay [10], the target named is human thyroid stimulating hormone receptor (TSHR), full length (human) (UniProt P16473). Briefly: 125I-K1-18 Fab competition, TSHR coated tubes; 0.01 µg/mL in HBD.
Assay [11] has as its target TSHR260-alkaline phosphatase (TSHR260-AP) (human) (UniProt P05187). Description: TSHR260-AP bridge ELISA, full length TSHR on wells; 250 µg/mL, diluted in HBD.
Assay [12] concerns the target human TSH receptor (full length), coated on tubes (human) (UniProt P16473). Description: inhibition of 125I-K1-70 Fab (competitor) binding to TSHR coated tubes; 0.03 µg/mL in HBD serum pool.
The target in assay [13] is TSH receptor (TSHR), full length human, coated on tubes (human) (UniProt P16473). Briefly: inhibition of 125I-TSH binding to TSHR coated tubes; 0.001 µg/mL, diluted in HBD serum pool.
In assay [14] the target is TSHR260-alkaline phosphatase (TSHR260-AP) (human) (UniProt P05187). Description: TSHR260-AP bridge ELISA, full length TSHR on wells; 10 µg/mL, diluted in assay buffer.
Assay [15] shares this target. Briefly: TSHR260-AP bridge ELISA, full length TSHR on wells; 0.1 µg/mL, diluted in HBD.
The target in assay [16] is TSH receptor (TSHR) coated on tubes (human) (UniProt P16473). Briefly: inhibition of 125I-K1-70 IgG binding to TSHR coated tubes; sample 0.01 µg/mL in HBD serum pool.
The target in assay [17] is TSHR260-AP (fusion protein consisting of a fragment of human TSHR, amino acids 22-260, with alkaline phosphatase) (human). Briefly: bridging ELISA: full length TSHR on wells, TSHR260-AP in liquid phase; IgG 10 µg/mL in HBD serum.
For assay [18] the target is unchanged. Briefly: bridging ELISA: full length TSHR on wells, TSHR260-AP in liquid phase; IgG 0.05 µg/mL in HBD serum.
The target is the same in assay [19]. Briefly: bridging ELISA: full length TSHR on wells, TSHR260-AP in liquid phase; IgG 0.1 µg/mL in HBD serum.
For assay [20] the target is unchanged. Description: bridging ELISA: full length TSHR on wells, TSHR260-AP in liquid phase; IgG 10 µg/mL in HBD serum. This is another data set of the same source.
Assay [21] has the same target. Description: bridging ELISA: full length TSHR on wells, TSHR260-AP in liquid phase; IgG 0.5 µg/mL in HBD serum.
The target is the same in assay [22]. Description: bridging ELISA: full length TSHR on wells, TSHR260-AP in liquid phase; IgG 1 µg/mL in HBD serum.
The target is the same in assay [23]. Briefly: bridging ELISA: full length TSHR on wells, TSHR260-AP in liquid phase; IgG 0.01 µg/mL in HBD serum.
Assay [24] has the same target. Briefly: bridging ELISA: full length TSHR on wells, TSHR260-AP in liquid phase; IgG 0.05 µg/mL in HBD serum. The source holds these as a separate data set.
Assay [25] shares this target. Briefly: bridging ELISA: full length TSHR on wells, TSHR260-AP in liquid phase; IgG 1 µg/mL in HBD serum. The source holds these as a separate data set.
The target is the same in assay [26]. Briefly: bridging ELISA: full length TSHR on wells, TSHR260-AP in liquid phase; IgG 0.1 µg/mL in HBD serum. This is another data set of the same source.
Assay [27] has the same target. Briefly: bridging ELISA: full length TSHR on wells, TSHR260-AP in liquid phase; IgG 0.005 µg/mL in HBD serum.
For assay [28] the target is unchanged. Description: bridging ELISA: full length TSHR on wells, TSHR260-AP in liquid phase; IgG 0.01 µg/mL in HBD serum. The source holds these as a separate data set.
Assay [29] shares this target. Description: bridging ELISA: full length TSHR on wells, TSHR260-AP in liquid phase; IgG 0.5 µg/mL in HBD serum. This is another data set of the same source.
For assay [30] the target is unchanged. Briefly: bridging ELISA: full length TSHR on wells, TSHR260-AP in liquid phase; IgG 0.005 µg/mL in HBD serum. The source holds these as a separate data set.
The target of assay [31] is TSH receptor (TSHR), full length human, coated on tubes (human) (UniProt P16473). Briefly: binding of 125I-TSH to TSHR coated tubes, in assay buffer, no competitor.
The target is the same in assay [32]. Description: binding of 125I-TSH to TSHR coated tubes, in HBD serum pool, no competitor.
Assay [33] has the same target. Description: binding of 125I-TSH to TSHR coated tubes, in assay buffer, no competitor. This is another data set of the same source.
For assay [34], the target named is TSH receptor (full length human TSHR) coated on tubes (human) (UniProt P16473). Description: 125I-TSH binding to TSHR coated tubes, in assay buffer, no inhibitor.
Assay [35] addresses TSHR coated tubes (full length TSHR) (human) (UniProt P16473). Briefly: 125I-TSH binding to TSHR coated tubes in assay buffer only (no competitor).
In assay [36] the target is TSH receptor (full length human TSHR) coated on tubes (human) (UniProt P16473). Description: 125I-TSH binding to TSHR coated tubes, in HBD serum pool, no inhibitor.

For 125I-TSH (ligand), the values for the 125I-TSH binding (%) in assay [1] and in [2] were 17.7% and 16%, respectively.
M22 Fab: the Inhibition of binding (%) in [3] was -7.9%; in [6] it was 11.5%; in [8], -0.7%; in assay [10], 20.4%; in [12] it was 66.8%; in assay [13] it was -11.2%. The Inhibition of binding (%) in assay [16] is 34%. In addition, the Mean absorbance at 405 nm (absorbance at 405 nm) in [4] was 0.01; in assay [5], -0.004; in assay [7] it was 0.015; in [9] it was -0.013; in assay [11], 0.031; in [14], 0.034. The same substance had a Mean absorbance at 405 nm (absorbance at 405 nm) in assay [15] of -0.007.
As to “M22 IgG (human monoclonal thyroid stimulating autoantibody, hMAb TSHR1)”, the Mean absorbance at 405 nm (absorbance at 405 nm) in assay [17] is 1.36; in assay [18], 0.292; in assay [19], 0.548; in [20], 1.27; in [21], 1.02; in assay [22], 1.09. The Mean absorbance at 405 nm (absorbance at 405 nm) turned out to be 0.064 in assay [23]; 0.332 in [24]; 1.17 in assay [25]; 0.599 in assay [26]; 0.032 in [27]; 0.043 in assay [28]. The Mean absorbance at 405 nm (absorbance at 405 nm) in assay [29] was 1.09; in [30] it was 0.011.
In the case of ^125I-TSH (ligand), the values for the ^125I-TSH binding (%) in assay [31], in assay [32] and in [33] were 11%, 11.5% and 13.4%, respectively. Besides, the % binding in [34] amounted to 10.8%; in assay [36] it was 12.4%. In addition, the % of ^125I-TSH binding in [35] is 12.4%.
